The series deals with WRKY34 (WT) (Arabidopsis thaliana, UniProt O65590 1-568). Kind of series: EMSA; competed by 250-fold unlabeled W-box tested; 20 mM HEPES pH 7.9, 50 mM KCl, 0.5 mM DTT, 0.1 mM EDTA, 0.1 ug/uL herring sperm DNA, room temperature 30 min; 1 ug protein, 2 pmol probe; 5% native PAGE, 0.5x TBE. To be noted: protein: recombinant; label: 32P 5' end; blunt.
Sequence of WRKY34 (WT) (O65590 whole entry): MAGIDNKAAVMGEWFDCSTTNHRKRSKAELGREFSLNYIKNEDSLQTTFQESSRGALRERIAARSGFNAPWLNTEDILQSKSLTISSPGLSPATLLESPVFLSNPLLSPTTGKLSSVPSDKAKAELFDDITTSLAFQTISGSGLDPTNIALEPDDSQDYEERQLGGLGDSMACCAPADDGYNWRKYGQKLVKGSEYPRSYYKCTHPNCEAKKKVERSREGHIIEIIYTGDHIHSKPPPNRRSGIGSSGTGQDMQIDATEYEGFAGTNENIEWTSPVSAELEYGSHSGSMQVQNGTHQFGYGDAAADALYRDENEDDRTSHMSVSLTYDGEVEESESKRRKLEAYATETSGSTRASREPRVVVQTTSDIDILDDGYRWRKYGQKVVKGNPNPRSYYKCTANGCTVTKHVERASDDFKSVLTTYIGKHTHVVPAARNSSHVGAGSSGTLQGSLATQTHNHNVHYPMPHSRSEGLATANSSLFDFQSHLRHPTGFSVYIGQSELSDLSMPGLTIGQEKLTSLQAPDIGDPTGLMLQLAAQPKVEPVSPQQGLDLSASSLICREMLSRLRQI

B1: W-box probe (three W boxes) (dsDNA)
DNA 1: CGTTGACCGTTGACCGAGTTGACTTTTTA
DNA 2: TAAAAAGTCAACTCGGTCAACGGTCAACG
For the molecule B1, the binding result was “binds”.
